The source of these data is patent US20040082509.

This series has as its system T1, L-JBD20 peptide (20 amino acid minimal JNK-inhibitory sequence of JIP-IB1).
T1 sequence: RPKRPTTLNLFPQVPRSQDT

Consider p34, for which the “p34 kinase activity (substrate histone) at the tested peptide concentration” value was 500 µM of the JBD20 peptides did not interfere with the activity of 6 particular kinases: ERK2, p38, pKC, p34, caK and pKA.

For pKC, the “pKC kinase activity (substrate histone) at the tested peptide concentration” value was 500 µM of the JBD20 peptides did not interfere with the activity of 6 particular kinases: ERK2, p38, pKC, p34, caK and pKA.

Regarding caK, the “caK kinase activity (substrate caseine) at the tested peptide concentration” value was 500 µM of the JBD20 peptides did not interfere with the activity of 6 particular kinases: ERK2, p38, pKC, p34, caK and pKA.

Consider pKA, for which the “pKA kinase activity (substrate histone) at the tested peptide concentration” value was 500 µM of the JBD20 peptides did not interfere with the activity of 6 particular kinases: ERK2, p38, pKC, p34, caK and pKA.

p38: the “p38 kinase activity (substrate ATF2) at the tested peptide concentration” value is 500 µM of the JBD20 peptides did not interfere with the activity of 6 particular kinases: ERK2, p38, pKC, p34, caK and pKA.
